Experimental data published in publication PMC314469, “Protein Interaction Networks by Proteome Peptide Scanning” (PLoS Biology, 2004).

T1: amphyphisin SH3 (AMPH_HUMAN), P49418
T1 chain: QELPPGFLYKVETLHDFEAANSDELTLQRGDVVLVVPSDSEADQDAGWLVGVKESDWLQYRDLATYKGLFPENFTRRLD


Legend:
[1] = target: T1, amphyphisin SH3 (AMPH_HUMAN), P49418; experiment: SPOT array
[2] = target: endophilin SH3 (SH3G2_HUMAN), Q99962; experiment: SPOT array

normalised SPOT signal, Boehringer light units (BLU); mean over the file's lines of this peptide [1]	normalised SPOT signal, Boehringer light units (BLU); mean over the file's lines of this peptide [2]	Binder
1460	665	QNQSIRRPSRQLAP [O75116 1371-1384]
61.5	116	QQFRLRRPSGITWP [Q96RY6 139-152]
42.1	36.3	QKTRPIKPPPDSQE [Q9H5W5 105-119]
66.8	1380	QPQSLRRPLWLSHS [Q9H8J7 161-174]
52.7	63.4	QPLGPAKPPAQQTG [Q9Y6V0 327-341]
31.8	16.7	QLVILRRPERPMED [Q96NX7 585-598]
1010	2220	QGAGPSRPPTPGRN [O95398 328-342]
59.8	68.3	QPGSPRKPPMDEKS [P08263 197-211]
12.2	190	ASSSPKRPSVERSN [O75764 109-122]
227	2940	QLSSPIRPPKYYTY [O43163 368-382]
31.9	83.1	QGIEFLRPLKTTTP [P42357 562-575]
10200	2870	QPLGPRRPMRPVGH [Q07092 192-205]
58.6	210	QPQGPPRPPQGGRP [P04280 312-326]
47.8	520	QQNLPKRPTSLPLN [Q13873 748-761]
22.8	91.5	QKDVIRRPTFVPQW [Q9P0Y7 137-150]
28.2	52.6	QPALLKRPQLELYV [Q9Y477 106-119]
35.7	0	QGPAPRRPWERGDG [P16066 284-297]
33.6	124	QGASIRRPSSGNAS [Q13267 138-151]
165	698	QLFTPNRPKKREIY [Q9BWY5 227-240]
565	73	QHYTLGRPGRAPRR [O60275 1399-1412]
5620	400	ATSRFYRPPRSSHS [Q9C0B5 150-163]

normalised SPOT signal, Boehringer light units (BLU); mean over the file's lines of this peptide [1]	normalised SPOT signal, Boehringer light units (BLU); mean over the file's lines of this peptide [2]	Binder
6.4	148	QIRILKRPTSNGVV [Q9Y403 46-59]
63.5	39.7	QPDGPARPPGMAPS [Q96KZ1 72-86]
36.6	6570	QGPAPRRPTTDQIS [O43566 535-548]
49.9	156	QELLPGKPPKSRVL [Q8TC00 766-780]
8300	218	ATSHFYRPPRSSHS [Q9ULC8 29-42]
825	4110	QLRPPPKPPLPAPD [Q9BZE0 329-343]
3320	377	QLQAPDRPSRELLQ [Q9H6Q4 405-418]
36.6	46.1	QPGSPRKPPADAKA [Q16772 198-212]
57.3	822	QQKPPKRPPIEASV [Q9BZS0 76-90]
43.3	1510	QNRPLIRPKKRLIV [P15976 237-250]
28.6	124	QPLEPKRPPPPRPV [O43426 1101-1114]
37.1	51.3	QGGRPHRPPQGQPP [Q04118 294-308]
116	133	QFPKLDRPTKQMRE [P78524 721-734]
2300	692	QLWDIRRPDRSERM [Q96S15 319-332]
84.1	94.4	QPQGPPRPPQGDKP [Q15215 74-88]
7120	1840	QGSAPLRPFRSGEG [Q9H6J3 73-86]
15700	298	ATAFLQRPSRAGSL [Q9C0A3 966-979]
56.3	85.7	QKQDLRRPKIHGAV [Q9UII6 5-18]
275	1250	QPVNPPRPFKHSER [Q9Y381 268-281]
64.3	73.5	QKFSLRRPLQTAMI [Q96JF9 85-98]
75.8	4830	QILSPPRPPTSPSF [Q9BRZ8 226-240]
